Data taken from patent US20100233191.

Experiments:
[1] = system: wild-type proaerolysin from Aeromonas hydrophila
[2] = system: MPP5 (histidine-tagged modified proaerolysin with a PSA cleavage site)
[3] = system: MPP1 (proaerolysin with the furin site replaced by the PSA substrate HSSKLQ)

Chain of MMP-7 (P09237 95-267): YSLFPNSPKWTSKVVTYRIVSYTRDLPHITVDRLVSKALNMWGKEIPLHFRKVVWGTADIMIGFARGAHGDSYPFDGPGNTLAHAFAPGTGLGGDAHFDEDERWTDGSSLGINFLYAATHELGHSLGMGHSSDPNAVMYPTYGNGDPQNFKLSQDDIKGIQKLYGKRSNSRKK

## Cathepsin B (cysteine protease)
[1]
  Amount Required for 50% Cleavage of Native Proaerolysin: 51.6 units
  Specific Activity Towards Proaerolysin: 3.9 fmol/µg/min
[2]
  Amount Required for 50% Cleavage of MPP5: 170 units
  Specific Activity Towards MPP5: 1.2 fmol/µg/min

## Chymotrypsin
[1]
  Amount Required for 50% Cleavage of Native Proaerolysin: 3 µg
  Specific Activity Towards Proaerolysin: 1550 nM/µg/min
[2]
  Amount Required for 50% Cleavage of MPP5: 31 µg
  Specific Activity Towards MPP5: 150 nM/µg/min

## Furin
[1]
  Amount Required for 50% Cleavage of Native Proaerolysin: 0.0012 µg
  Specific Activity Towards Proaerolysin: 9.69 nM/µg/min
[2]
  Amount Required for 50% Cleavage of MPP5: > 0.0032 µg
  Specific Activity Towards MPP5: 0.24 nM/µg/min

## MMP-7
[1]
  Amount Required for 50% Cleavage of Native Proaerolysin: Inactive
  Specific Activity Towards Proaerolysin: 0
[2]
  Amount Required for 50% Cleavage of MPP5: Inactive
  Specific Activity Towards MPP5: 0

## Prostate-specific antigen (PSA), also referred as hK3
[1]
  Amount Required for 50% Cleavage of Native Proaerolysin: 49.7 µg
  Specific Activity Towards Proaerolysin: 0.0156 nM/µg/min
[2]
  Amount Required for 50% Cleavage of MPP5: 12.2 µg
  Specific Activity Towards MPP5: 0.0635 nM/µg/min
[3]
  hemolysis (ratio to Triton control), MPP1 10^-8 M pre-incubated with PSA in buffer: about 45% hemolysis
  hemolysis, MPP1 in human plasma or plasma spiked with PSA (10,000 ng/ml): no appreciable hemolysis (i.e. <1% of Triton control

## Thrombin
[1]
  Amount Required for 50% Cleavage of Native Proaerolysin: > 12 µg
  Specific Activity Towards Proaerolysin: < 7.8e-07 nM/µg/min
[2]
  Amount Required for 50% Cleavage of MPP5: > 12 µg
  Specific Activity Towards MPP5: < 7.8e-07 nM/µg/min

## Trypsin (Type I trypsin)
[1]
  Amount Required for 50% Cleavage of Native Proaerolysin: 0.0095 µg
  Specific Activity Towards Proaerolysin: 489000 nM/µg/min
[2]
  Amount Required for 50% Cleavage of MPP5: 0.813 µg
  Specific Activity Towards MPP5: 5700 nM/µg/min

## hK1 (activated by thermolysin)
[1]
  Amount Required for 50% Cleavage of Native Proaerolysin: 2.63 µg
  Specific Activity Towards Proaerolysin: 15.3 fmol/µg/min
[2]
  Amount Required for 50% Cleavage of MPP5: Inactive
  Specific Activity Towards MPP5: 0

## hK2 (human glandular kallikrein 2)
[1]
  Specific Activity Towards Proaerolysin: 1610 fmol/µg/min
[2]
  Amount Required for 50% Cleavage of MPP5: Inactive
  Specific Activity Towards MPP5: 0

## uPA
[1]
  Amount Required for 50% Cleavage of Native Proaerolysin: 7.79 µg
  Specific Activity Towards Proaerolysin: 25.8 fmol/µg/min
[2]
  Amount Required for 50% Cleavage of MPP5: 173 µg
  Specific Activity Towards MPP5: 1.1 fmol/µg/min
